Assay results from patent publication US20140322161A1, “ANTI-IL-6 VACCINE COMPOSITION” (PEPTINOV SAS, priority 2011, published 2014).
Bridges are numbered along the chain shown (N, C = ends). BDB = bisdiazonium-benzidine, coupling agent to KLH; Gluta = glutaraldehyde, coupling agent to KLH

Columns and labels:
hIL-6 [1] = target: T1, hIL-6 (Homo sapiens, UniProt P05231); experiment: Human IL-6 neutralization test on HEK293 cells (hIL-6 receptor, SEAP reporter) with purified IgGs from immunized rabbits; format: cell-based; conditions: purified IgGs from rabbits immunized with 100 μg of the peptide
Experimental: New Zealand rabbits free from specific pathogenic organisms (n=1 per peptide) were immunized with 100 μg of peptides hP1, hP2, hP3, hP4 and hP6 derived from human IL-6 by five immunizations with CFA/IFA on D0, D14, D28, D56 and J70. The neutralizing ability of the purified IgGs, derived from the serum of each rabbit, was tested in a human IL-6 neutralization test. This test is carried out on HEK293 cells (Human Embryonic Kidney cells) transfected with the gene encoding the human IL-6 receptor and the secreted embryonic alkaline phosphatase (SEAP) reporter gene (Supplier: Invivogen). The latter is then secreted in a dose-dependent manner in response to the human IL-6.
Plating (D0): seed a flat-bottom 96-well plate, treated for cell culture with 50,000 cells per well in 100 μL of neutralization medium. (DMEM 4.5 g/L glucose, 10% v/v FCS, 2 mM L-Glutamine, 100 U/mL Penicillin/Streptomycin, 100 μg/mL of Normocin).
In parallel a so-called “pre-incubation” plate is prepared with the desired concentration of human IL-6, rabbit antibodies and commercial anti-hIL-6 antibodies used as a positive control, all in a final volume of 200 μL of neutralization medium.
The pre-incubation plate is left at 37° C. for 2 hours. 100 μL per well is then transferred to the corresponding wells of the plate containing the cells, then the latter is incubated with 5% CO2 at 37° C. for 24 hours.
Development (D1): Fill a flat-bottom 96-well plate with 180 μL per well of QUANTI-Blue (InVivoGen, CA, USA). Add 20 μL of supernatant from the plate treated with IL-6. Incubate with 5% CO2 at 37° C. for 3 hours. Determine the quantity of secreted alkaline phosphatase using a spectrophotometer set at 620 nm.

C57BL/6 mice = experiment: Murine model of chronic colitis induced by DSS after vaccination; format: in vivo; conditions: for histological colitis score: D67 colon distal biopsies, compared with control mice treated with PBS or KLH alone, FIG. 3; for disease activity index (DAI) / reduction of the length of the colon: DSS-treated C57BL/6 mice; for disease activity index (DAI): 100 μg peptide coupled with KLH, compared with the control groups, FIG. 2; for reduction of the length of the colon: compared with control mice, FIG. 4
Excerpt: Chronic colitis induced by Dextran Sodium Sulfate (DSS) is a well-known model of chronic inflammatory disease reproducing the main characteristics of the human diseases (Alex et al. (2009) Inflamm. Bowel Dis. 15:341-352).
Briefly, groups of 6 C57BL/6 mice (Charles River Laboratories, L'Arbresle, France) were formed. The mice were immunized 4 times (once with CFA and three times with IFA) every 15 days with different vaccine preparations. The mice were respectively immunized with PBS (DSS/PBS group), 50 μg per mouse of KLH (DSS/KLH group), and 100 μg per mouse of peptide mP1, mP2, mP3, mP4, mP5 and mP6 coupled with KLH (DSS/mIL-6 peptide group). A control H2O group was also included. Four days after the first booster, colitis was induced by absorption of Dextran Sodium Sulfate (DSS) in water (2%) over 7 days followed by 7 days of water. Three DSS/water cycles were thus carried out, after which the mice received water until the end of the protocol. The clinical signs of the disease appear approximately on the fifth day after the start of treatment with DSS (D26 of the protocol). The development of the disease is measured from the start of the first DSS cycle up to the end of the protocol by a disease activity index (DAI) including weight loss, the presence of blood in the stools and the texture of the stools. The clinical scores are determined as follows: for the texture of the stools a score of 0 (hard stools) to 4 (diarrhoea), for the presence of blood in the stools a score of 0 (absence) to 4 (macroscopic blood), and weight loss a score of 0 (<1%) to 4 (>20%). Each mouse is thus assigned a clinical score with a maximum score of 12.
Then, on D67, the mice are killed by cervical dislocation. The histological sections from colon distal biopsies are scored blind, according to the severity of the inflammation (0: absence, 1: slight, 2: moderate, 3: severe), the extent of the inflammation (0: absence, 1: mucosal, 2: mucosal and sub-mucosal, 3: transmural), crypt damage (0: absence, 1: one-third damaged, 2: ⅔ damaged, 3: only the surface of the epithelium intact, 4: total destruction of the crypts and epithelium). Each mouse is thus assigned a histological score with a maximum score of 10.

murine IL-6 = target: T2, murine IL-6 (Mus musculus, UniProt P08505); experiment: Murine IL-6 neutralization test on murine B9 hybridomas with purified IgGs from immunized rabbits; format: cell-based; conditions: purified IgGs from rabbits immunized with the peptide; B9 hybridoma proliferation, XTT
T2 sequence (P08505 25-211): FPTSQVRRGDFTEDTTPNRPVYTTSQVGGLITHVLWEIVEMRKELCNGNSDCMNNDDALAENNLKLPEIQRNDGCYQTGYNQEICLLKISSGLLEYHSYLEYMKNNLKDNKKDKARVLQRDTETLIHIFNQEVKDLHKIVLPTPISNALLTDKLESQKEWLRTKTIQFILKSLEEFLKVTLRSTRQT
Experimental: The neutralizing ability of purified IgGs based on serum from rabbits immunized with the peptides mP1, mP2, mP3, mP4, mP5 and mP6 respectively, was tested in a murine IL-6 neutralization test. This test is based on the fact that murine B9 hybridomas proliferate in a dose-dependent manner in response to murine IL-6 (Brakenhoff et al. (1987) J. Immunol. 139:4116-21).
Plating (D0): seed a flat-bottom 96-well plate, treated for cell culture with 5000 cells per well in 50 μL of neutralization medium. (RPMI 1640 without phenol red, 5% v/v Foetal Calf Serum (FCS), 2 mM L-Glutamine, 100 U/mL Penicillin/Streptomycin, […] of β-Mercaptoethanol)
In parallel a so-called “pre-incubation” plate is produced with the desired concentration of murine IL-6, samples and commercial anti-mIL-6 antibodies used as positive control, all in a final volume of 100 μL of neutralization medium.
The pre-incubation plate is left at 37° C. for 2 hours. 50 μL per well is then transferred to the corresponding wells of the plate containing the cells, then the latter is incubated with 5% CO2 at 37° C. for 96 hours.
Development (D4): Add 50 μL of a solution of XTT (for 2,3-bis-(2-methoxy-4-nitro-5-sulfophenyl)-2H-tetrazolium-5-carboxanilide)—0.5% electron coupling reagent to each well. Leave to incubate at 37° C. for 7 hours. Reading of the optical density on a spectrophotometer set at 450 nm.

hIL-6 [2] = target: T1, hIL-6; experiment: ELISA of sera from Cynomolgus monkeys immunized with hP2 for anti hIL-6 antibodies; format: in vivo, Cynomolgus monkey
Experimental: Four Cynomolgus monkeys were immunized intra-muscularly at day 0 with 150 μg of the cyclized hP2 peptide derived from hIL-6 previously described coupled to the protein carrier KLH, and then emulsified with the ISA51 adjuvant (Seppic).
Boosts were performed at d15, d30, d45 with an additional boost at d76. Blood samples were collected every two weeks until the end of the experiment (d120). These sera were tested in ELISA to evaluate the production of anti hIL-6 antibodies. A control group of four monkeys immunized with KLH only was used.

Cynomolgus monkeys = experiment: Delayed-type hypersensitivity against tetanus toxoid in immunized Cynomolgus monkeys; format: in vivo, Cynomolgus monkey; conditions: tetanus toxoid challenge at d90, compared to the KLH group, FIG. 8
Experimental: Briefly, the TTx vaccine (Sanofi-Pasteur, solution of 0.5 ml comprising 40 IU of Tetanus Toxoid and 0.6 mg of aluminium hydroxide) was administered intramuscularly at d59 in the thigh. Then an intradermic challenge was performed at d90 in two injection sites in the back of the monkey.
Clinical features of the cutaneous reaction were evaluated once a day for each animal before the challenge and then 24 h, 48 h and 72 h after the challenge. Each injection site was monitored for the incidence, grade and duration of three parameters (erythema, thickening, nodules) and a cumulative clinical score of delayed-type hypersensitivity (DTH) comprising these three parameters was established for each group.

IL-6Rα receptor = target: T3, IL-6Rα receptor (Homo sapiens, UniProt P08887); conditions: adults; cited from earlier work
T3 sequence (P08887 20-468): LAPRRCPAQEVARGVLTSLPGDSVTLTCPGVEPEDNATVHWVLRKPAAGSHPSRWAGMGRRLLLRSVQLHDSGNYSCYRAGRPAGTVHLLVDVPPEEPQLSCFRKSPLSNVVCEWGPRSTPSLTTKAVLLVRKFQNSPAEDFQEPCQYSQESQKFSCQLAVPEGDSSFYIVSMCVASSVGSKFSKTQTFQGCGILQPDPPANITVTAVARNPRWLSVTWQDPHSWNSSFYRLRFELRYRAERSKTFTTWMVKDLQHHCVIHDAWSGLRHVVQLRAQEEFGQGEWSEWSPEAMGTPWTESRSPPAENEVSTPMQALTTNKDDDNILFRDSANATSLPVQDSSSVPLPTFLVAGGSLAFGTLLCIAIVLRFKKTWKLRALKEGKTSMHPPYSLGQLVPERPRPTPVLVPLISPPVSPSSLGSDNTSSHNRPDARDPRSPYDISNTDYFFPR

T1 sequence (P05231 30-212): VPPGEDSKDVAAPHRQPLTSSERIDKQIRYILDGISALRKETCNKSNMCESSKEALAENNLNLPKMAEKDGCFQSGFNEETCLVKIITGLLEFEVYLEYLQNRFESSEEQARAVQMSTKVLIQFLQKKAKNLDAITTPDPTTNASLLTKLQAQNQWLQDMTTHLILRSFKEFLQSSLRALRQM

Substance	neutralization of the biological activity of human IL-6 (hIL-6 [1])	histological colitis score (C57BL/6 mice)	disease activity index (DAI) (C57BL/6 mice)	reduction of the length of the colon (C57BL/6 mice)	neutralization of the biological activity of murine IL-6 (murine IL-6)	further results
BDB-Y-CE127FLQNRFESSEEQAR141C+ Amide ({BDB}-YCEFLQNRFESSEEQARC-NH2; disulfide 2-18 (inferred)) [hP4, peptide derived from hIL-6 region 127-141]	neutralize the biological activity of the human IL-6 in a dose-dependent manner					
BDB-Y-E61IVEMRKELCNGNSD75C+Amide ({BDB}-YEIVEMRKELCNGNSDC-NH2; disulfide 11-17 (inferred)) [mP1, peptide derived from mIL-6 region 61-75]		significantly reduced histological score	significantly reduced disease activity index	significantly less severe reduction of the colon	neutralize the biological activity of murine IL-6 in a dose-dependent manner	
Acetyl+D176KCESQKEWLRTK188C-Y-BDB [mP6]		significantly reduced histological score	significantly reduced disease activity index	significantly less severe reduction of the colon	neutralize the biological activity of murine IL-6 in a dose-dependent manner	
Gluta-C99YQTGYNQEIC109+Amide (Gluta-CYQTGYNQEIC-NH2; disulfide 1-11 (inferred)) [mP3, peptide derived from mIL-6 region 99-109]		significantly reduced histological score	significantly reduced disease activity index	significantly less severe reduction of the colon	neutralize the biological activity of murine IL-6 in a dose-dependent manner	
BDB-Y-G63ISALRKETCNKSNMC78+Amide ({BDB}-YGISALRKETCNKSNMC-NH2; disulfide 11-17 (inferred)) [hP1, peptide derived from hIL-6 region 63-78]	neutralize the biological activity of the human IL-6 in a dose-dependent manner					
Gluta-C101FQSGFNEETC111 +Amide (Gluta-CFQSGFNEETC-NH2; disulfide 1-11 (inferred)) [hP3, peptide derived from hIL-6 region 101-111]	neutralize the biological activity of the human IL-6 in a dose-dependent manner					
BDB-Y-CE125FMKNNLKDNKKDKAR140C+Amide [mP4]		significantly reduced histological score	significantly reduced disease activity index	significantly less severe reduction of the colon	neutralize the biological activity of murine IL-6 in a dose-dependent manner	
Acetyl+C78ESSKEALAENNLNLPK94C-Y-BDB (Ac-CESSKEALAENNLNLPKCY-{BDB}; disulfide 1-18 (inferred); also: coupled to KLH via BDB) [hP2, peptide derived from hIL-6 region 78-94]	neutralize the biological activity of the human IL-6 in a dose-dependent manner					peak of anti-hIL-6 antibody titer kinetics (hIL-6 [2]; Cynomolgus monkeys immunized with hP2, in average): ~60 days; development of antibodies against hIL-6 (ELISA) (hIL-6 [2]; four Cynomolgus monkeys, 150 μg cyclized hP2 coupled to KLH in ISA51 i.m., FIG. 7): developed antibodies against hIL-6; DTH response (cumulative clinical score) (Cynomolgus monkeys): marked attenuation of the DTH response
Acetyl+CN154QEVKDLHKIVLPTP168C-Y-BDB [mP5]					do not neutralize the activity of murine IL-6	
Acetyl +T177KCQAQNQWLQDM189C-Y-BDB (Ac-TKCQAQNQWLQDMCY-{BDB}; disulfide 3-14 (inferred)) [hP6, peptide derived from hIL-6 region 177-189]	neutralize the biological activity of the human IL-6 in a dose-dependent manner					
Tocilizumab: humanized monoclonal antibody directed against the IL-6Rα receptor						clinical effectiveness in rheumatoid arthritis (IL-6Rα receptor): clinically effective
